pKd: −log10 of the molar value.
Target: recombinant His-tagged Sp4E-BP (Strongylocentrotus purpuratus 4E-BP) (Strongylocentrotus purpuratus)
Experiment: SPR; Sp4E-BP immobilised (60 uRIU) by amine coupling on a mixed SAM chip; Flag-MmIF4E1:m7GTP injected from 4.37 uM to 53.9 nM (3-fold dilution series); 25°C; HEPES 50 mM pH 7.7, KCl 150 mM, 0.5% Igepal; flow 25 uL/min; global fit, one step 1:1 reaction (Scrubber 2.0a)

Substance: Flag-tagged MmIF4E1 (eIF4E1 from Mus musculus), as Flag-MmIF4E1:m7GTP (from UniProt P63073 1-217) (natural protein)
- pKd: 7.64
- koff: 0.00022 s⁻¹
- kon: 9300 M⁻¹ s⁻¹

Source: PMC4018528
